Test results as given in patent US20260258115A1 (MAPP BIOPHARMACEUTICAL, published 2026).

B1: ADI-20991 (antibody, V domains shown)
VH: EVQLVESGGNLVKPGGSLRLSCAASGFTFSGYYMSWIRQAPGKGLEWISDISGGSSYTNYADSVKGRFTISRDNAKNSLYLQMNSLRAEDTAMYYCARVEYDTTGPFHFDYWGQGTLVTVSS
VL: QPVLTQPPSVSGAPGQRVTISCTGSSSNIGAGYDVHWYQQLPGTAPKLLIYGNNNRPSGVPDRLSGSKSGTSASLAITGLQAEDEADYYCQSYDSSLSGYVFGTGTKVTVL
B2: ADI-20992 (antibody, V domains shown)
VH: EVQLVESGGGLVQPGGSLRLSCVVSGFTFKSYWMTWVRQAPGKGLEWVANIKEDGSEKYYVDSVKGRFTISRDNARNSLFLQMNSLRADDTAVYYCARNLEVSNEFYVVTDNYYLMDVWGQGTTVTVSS
VL: DIQLTQSPSSLSASVGDRVTITCRASQSISFFLNWYRQKPGKAPKLLIYAASTLQSGVPSRFSGSGSGTDFTLTISSLQPEDFASYYCQQSYSTPHTFGQGTKVEIK
B3: ADI-20999 (antibody, V domains shown)
VH: QVQLQESGPVLVKPSETLSLTCTVSGGSITSSAYYWGWIRQPPGKGLEWIGSVSYSGTTSYTPSLKSRVTISGDASKEQFSLNLRSVTAADTAVYYCARQTKAFGRRDYGMDVWGQGTTVTVSS
VL: QPVLTQPPSVSAAPGQKVTISCSGSNSNIGSNFVSWYQQLPGTAPKLLIYENNKRPSGIPDRFSGSKSGPSATLGITGLQTEDEADYYCGTWDTGLSAHWVFGGGTKLTVL
notes: also called Ab 250
B4: ADI-21014 (antibody, V domains shown)
VH: QVQLQESGPGLVKPSETLSLICTVSGGSISNYYWSWIRQPPGKGLEWIGYVWFGTTKYNPSLKNRVTISVDTGKNQVSLKVNSVTAADTAIYYCARDSSIWYRGAFEIWGQGTTVTVSS
VL: DIRLTQSPSSLSASVGDRVTITCQASQDISNHLNWYQQRPGKAPELLIYDASTLETGGPSRFSGSGSGTDFTLTISSLQPEDFADYYCQQYDNLPVTFGGGTKVDIK
B5: ADI-21017 (antibody, V domains shown)
VH: QVQLVESGTEVKKPGASVKVSCKASGYTFTNYGITWVRQAPGQGLEWMGCISGYNGNTNYAQNLQGRVTMTTDTSTNTAYMELRSLISDDTAVYYCARDTGLTAAALLDYWGQGTLVTVSS
VL: DIVLTQSPLSLPVTLGQPASISCRSSQSLVYSDGNTYLSWFQQRPGQSPRRLIYKVSNRDSGVPDRFGGSGSGTYFTLKISRVEAEDVGIYYCMQAIHWPLTFGGGTKVEIK
B6: ADI-21021 (antibody, V domains shown)
VH: QVQLQQWGAGLLKPSETLSLTCAVHGGSFSGFYWSWIRQSPGKGLEWIAEINDSGNTNHNPSLKSRVTISIDTSKNQFSLNVSSVTAADTAVYYCAKNGGGHHYVGTLRFRSRAFDIWGQGTMVTVSS
VL: EIVMTQSPSTLSASVGDRVTITCRASQSIGNRLAWYQQKPGKAPKLLISLASGLETGVPSRFSGSGSGTEFTLTITSLQPDDFATYYCQQYSSYGTFGQGTKLEIK
notes: also called Ab 270
B7: ADI-21023 (antibody, V domains shown)
VH: EVQLVESGGGLVKPGGSLRLSCAASGFRFSSYGMHWVRQAPGRGLEWVSSITAGSSYMDYADSVKGRFSISRDNAKTSLYLQMNSLRAEDTAIYYCARENYDTGRGLNWFDPWGQGTLVTVSS
VL: QSVVTQPPSVSGAPGQRVTISCTGSSSNIGAGYDVHWYRQLPGTAPEVLIYGNNNRPSGVPDRFSGSKTGTSASLAITGLLAEDGADYYCQSYDRSQLWVFGGGTQLTVP
B8: ADI-21025 (antibody, V domains shown)
VH: EVQLVESGGGLVRPGGSLRLSCEASGLKLSGYSMNWVRQAPGKGLEWVSSISASSSYIHYADSLKGRFTISRDNAKNSLYLQMNSLRAEDTAVYYCVASWLTPGWFDPWGQGTLVTVSS
VL: QPVLTQPPSVSGAPGQTVTISCTGSSSNIGAGYDVHWYQQLPGTAPKLLIYGNTNRPSGVPDRFSGSKSGTSASLAVTGLQAEDEGDYYCQSYDSSLSGSAFGGGTKLTVL
B9: ADI-21027 (antibody, V domains shown)
VH: QVQLQESGPGLVKPSGTLSLTCVVSGGSIRSHNYWTWVRQPPGKGLEWIGEIYHSGNTNYNPSLKSRVTLSIDKSKNVFSLRLNSVTAADTAVYYCVGGGPFAPYYFENWGQGTLVTVSS
VL: QSVLTQPPSVSGAPGQRVTISCTGSSSNIGAGYAVHWYHQLPGTAPKLLIYDNNNRPSGVPDRFSGSKSGSSASLAITGLQAEDEADYYCQSYDRSLSGYVFGTGTKLTVL
B10: ADI-21029 (antibody, V domains shown)
VH: QVQLVQSGAEVRKPGESLKISCKASGYSFTNYWIGWVRQMPGKGLEWMGIVYPADSHPVYSPSFQGQVTFSTDKSINTAYLQWSSLKASDTAMYFCARRDGGTDYLSDAFDIWGQGTMVTVSS
VL: DIVMTQSPSSLSASVGDRVTITCRTSQSIRRYLNWYQQKPGKAPKLLIYAASSLQSGVPSRFSGSGSGTDFTLTISSLQPEDFATYYCQQSYSTPNTFGQGTKVEIK
B11: ADI-21030 (antibody, V domains shown)
VH: EVQLVESGGGLVKPGGSLRLSCAASGFKFSTYYMSWIRQAPGKGLEWVSNISGGSSYSNHADSVKGRFTISRDNAKNSLYLEMNSLRAEDTAVYYCAREDLMGVSGLAYFEYWGQGILVTVSS
VL: QPVLTQPPSVSGAPGQRVTISCTGRSSNIGAGYDVNWYKQLPGAVPKVLIYGNTNRPSGVPDRFSGSKSGNSASLAITGLQAEDEADYYCQSYDRNLGYVFGTGTKLTVL
B12: ADI-21033 (antibody, V domains shown)
VH: QVQLVQSGAEVRKPGDSLKISCKFSENIFTTYYWTGWVRQMPGRGLEWMGIIFPGDSDTRYSPSFQGHVTISVDKSIATAFLQWSSLKASDSAMYYCARAKYEGSFDMWGQGTMVTVSS
VL: DIQVTQSPSSLSASVGDRVSITCQASQDIRNRLNWYQQKPGKAPKLLIYDASILETGVPSRFSGSGSGTDFTFSISSLQPEDFATYYCQQYDSFSLFTFGPGTKVEIK
B13: ADI-21034 (antibody, V domains shown)
VH: QVQLQQSGAEVKKPGESLTISCKGSGYSFGNYWISWVRQMPGKGLEWMGRIDPSDSYVNYSPSFQGNVTMSVDKSSSTAYLQWSSLKASDTAMYYCARLAGYSTLWGQGTLVTVSS
VL: EIVLTQSPGTLSLSPGERATLSCRASQSFGSIYLAWYQQKPGQAPRLLIYGTSSRATGIPDRFSGSGSGTDFTLTIRRLEPEDFAVYYCLYYGSSPGATFGPGTKVDIK
B14: ADI-21038 (antibody, V domains shown)
VH: QVQLVQSGAEVKKPGESLKISCQGFGFSFTSYWIGWVRQTPGKGLEWMGTIYPGDSETRKSPSIQGQVTFSADRSISTAYLQWSGLTASDTAVYYCARLKGGWGTTMAGIRDYFYYGLDVWGQGTTVTVSS
VL: EIVLTQSPGTLSLSPGERATLSCRASQSVSSSYLAWYQQKPGQAPRLLIYGASSRATGIPDRFTGSGSGTDFTLTISRLEPEDFAVYYCQQYATSLGGFTFGPGTKVDIK
B15: ADI-21044 (antibody, V domains shown)
VH: QVQLVQSGAELKKPGESLKISCKTSGYTFANYWIGWVRQMPGKGLEWMGIIYPGDSDTRYSPSFQGQVTFSADKSINSAYLQWHSLKASDSAIYYCARRFSPDYSDGAAPPTLSDAFDVWGQGTTVTVSS
VL: DIVMTQSPSSLSASVGDRVTITCRASQNINIYLNWYQQKPGKAPKLLIYAASTLQSGVPSRFSGSGSATDFTLTISSLQPEDFATYYCQQSYRTPNDFGRGTKVDIK
B16: ADI-21045 (antibody, V domains shown)
VH: EVQLVESGGGLVKPGGSLRLSCLASGFKFRSYSMNWVRQAPGTGLVWVASISASSSFIFYADSLKGRFTISRDNDKNSLYLQMNSLTVEDTAVYYCVRDMSGISSGGKTFDYWGQGTLVTVSS
VL: QSVLTQPPSVSGAPGQRVTISCTGSSSNLGAGYDVQWYQQLPGTAPKLLIYGNNNRPSGVPDRFSGSKSGTSASLAITGLRAEDEADYYCQSYDTSPVFGGGTKLTVL
B17: ADI-21050 (antibody, V domains shown)
VH: QVQLVQSGAEVKKPGASVKVSCTASGYTFANNGISWVRQAPGQGLEWMGWISAYNGNTKYAQTVQGRVTLTTDTSTSTAYMELRSLTSDDTAVYYCAREMGVDAAATFDYWGQGTLVTVSS
VL: EIVMTQSPLFLSVTLGQPASISCRSSQSLVYSDTNTYLTWFQQRPGQSPRRLIYKVSNRDSGVPDRFSGSGSGTYFTLKISRVEAEDIGVYYCMQAIHWPRTFGQGTKLEIK
B18: ADI-21051 (antibody, V domains shown)
VH: QVQLVESGPGLVRPSQTLSLTCNVSGDFISRGTYYWSWIRQSAGKGLEWIGRIYTSGITDYSPSLKSRVTISVDTSKNQFFLKLASVTAADTAVYYCARGRGYYDSPWGQGTLVTVSS
VL: ETTLTQSPATLSLSPGERATLSCRASESVSTFLGWYQQKPGQAPRLLIYDASNRASGVPARFSGSGSGTDFTLTISSLEPEDFAVYYCQLRNKWLTFGPGTKVDIK
B19: ADI-21052 (antibody, V domains shown)
VH: QVQLVQSGAEVKKPGASVKVSCKASGYTFTSYGISWVRQAPGQGLEWMGWISAYNGNTNYAQNLQGRVTMTTDTSTSTAYMELRSLRSDDTAMYYCARDAFSRVGYWYFDLWGRGTLVTVSS
VL: SYELTQPPSVSVAPGQAARITCGGNNIGSKTVHWYQQKPSQAPVLVVYDDSDRPSGIPERFSGSNSGNTATLTISRVEAGDEADYYCQVWDSSGDHPVFGGGTKLTVL
notes: also called Ab 300

Experiments:
Test in all cases: BLI, IgG
[1] = target: RSV prefusion F (preF), subtype A (respiratory syncytial virus, subtype A, UniProt P03420 26-513)
[2] = target: T1, RSV postfusion F (postF), subtype A (respiratory syncytial virus, subtype A, UniProt P03420 26-513)
T1 construct: also called F ΔFP; Postfusion subtype A

[3] = target: RSV prefusion F (preF), subtype B (respiratory syncytial virus, subtype B)

Row | Binder | Kd [1] | binding result [2] | Kd [3] | Kd [2]
1 | B1 | 0.234 nM | no binding | 0.258 nM | –
2 | B2 | 0.956 nM | no binding | 1.22 nM | –
3 | B3 | 4.16 nM | no binding | 24.1 nM | –
4 | B4 | 0.408 nM | no binding | 0.378 nM | –
5 | B5 | 0.305 nM | no binding | 1.56 nM | –
6 | B6 | 2.55 nM | no binding | 4.5 nM | –
7 | B7 | 0.264 nM | no binding | 0.316 nM | –
8 | B8 | 0.242 nM | no binding | 0.295 nM | –
9 | B9 | 0.296 nM | no binding | 0.34 nM | –
10 | B10 | 3.77 nM | no binding | 8.38 nM | –
11 | B11 | 0.257 nM | no binding | 0.301 nM | –
12 | B12 | 0.193 nM | no binding | 1.4 nM | –
13 | B13 | 0.145 nM | no binding | 0.174 nM | –
14 | B14 | 2.93 nM | – | 16 nM | 1.45 nM
15 | B15 | 4.51 nM | no binding | 5.85 nM | –
16 | B16 | 0.456 nM | no binding | 0.596 nM | –
17 | B17 | 0.362 nM | no binding | 0.323 nM | –
18 | B18 | 0.292 nM | no binding | 0.335 nM | –
19 | B19 | 0.126 nM | – | 0.11 nM | 18.4 nM
